Assay results as given in US20220411532A1 (GUNDERSEN LUTHERAN MEDICAL FOUNDATION, published 2022).
Values belong to the binder of their own block, whether it stands above or below them.

Tests used:
[1] = target: T1, cleaved amphiregulin (cell-associated transmembrane stalk left after TACE/ADAM17 cleavage of human AREG) (human, UniProt P15514 188-252); assay: live-cell fluorescence imaging of MCF-7 cells with 1A3-pHrodo
T1 construct: Endogenous protein on MCF7 cells and in formalin-fixed human tumor tissue; also called cleaved AREG; cell surface cleaved AREG
T1 sequence: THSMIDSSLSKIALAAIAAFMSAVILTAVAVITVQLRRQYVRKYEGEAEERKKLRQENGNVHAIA
Description: In order to study internalization, 1A3 was conjugated with pHrodo iFL Red dye using pHrodo iFL Red Microscale Protein Labeling Kit (P36014, Thermo Fisher Scientific). MCF7 cells were seeded in 12 mm Nunc Glass Bottom Dish, at a density of 1×10⁵ cells/dish. After allowing the cells to attach overnight, the cells were incubated for 60 min with […] Hoechst dye for nuclei staining and LysoTracker® Green DND-26 (Thermo Fisher Scientific) for lysosomal labeling. The cells were then incubated with 1A3-pHrodo (2 μg/mL) for 20 min at 37° C. After washing the wells with PBS, the cells were supplemented with 1× live-cell imaging solution (Molecular probes, Thermo Fisher Scientific). Fluorescence images were acquired at 30 min intervals for 2.5 h with the Olympus 1X71 inverted fluorescence microscope (Olympus, Shinjuku, Tokyo, Japan). TAPI-2 (20 μM)—pre-treatment was performed overnight, with DMSO serving as a control.

[2] = target: T2, peptide representing uncleaved AREG (human); assay: ELISA on peptides representing cleaved and uncleaved AREG
T2 construct: also called full length AREG peptide; intact AREG
T2 peptide: SMKTHSMIDSSLSKIAC

[3] = target: T1, cleaved amphiregulin (cell-associated …); assay: immunohistochemistry on a breast tumor tissue micro-array, 10 µg/mL antibody
Description: A breast disease spectrum tissue micro-array was purchased from US Biomax Inc. (Derwood, Md., USA). The slides were deparaffinized in xylene and rehydrated by serial incubations in graded ethanol and then in water in a Histo-Tek® SL Slide Stainer (Sakura Finetek USA, Inc., Torrance, Calif., USA). Antigen retrieval was performed in a steamer by boiling slides in a container of citrate buffer (pH 6.0) for 20 min, which was then removed for 15 min of cooling on the benchtop. Slides were washed in 1× Wash buffer (Dako Agilent, Santa Clara, Calif., USA) and endogenous peroxidase was quenched by incubating with Dako Dual Endogenous Enzyme Block (S2003) for 10 min. […] Slides were washed four times in 1× Wash buffer, followed by the incubation for 45 min at room temperature in 1:100 dilution of […] immunoglobulins/HRP (Dako, P0160 or ready-to-use goat anti-rabbit HRP labeled polymer (Dako, K4003). The slides were washed twice in 1× Wash buffer and the color was developed with 3,3-diaminobenzidine tetrahydrochloride substrate chromogen system (K3468, DAKO, Santa Clara, Calif., USA). Sections were washed with water and counterstained with hematoxylin, rinsed with water, dehydrated by serial ethanol washes to 100%, cleared and mounted in Permount (Thermo Fisher Scientific). […]

- binding result [1]: binds
B1: 1A3 conjugated with pHrodo iFL Red dye (antibody, V domains shown)
VH: QSVKESEGRLVTPGTPLRLTCTVAGYSLSRYHMCWVRQAPGKGLEWIGMIGGSGRTDYASWAKGRFTISKTSTTVDLKITSPTTEDTATYFCSTVYTDSDGDFWGPGTLVTVSS
VL: ELDMTQTPSSKSVPVGGTVTINCQASESVYSNDRLAWFQQKPGQPPKLLIYYASTLASGVPSRFKGSGSGTQFTLTISDLECADAATYYCQSCYDMSSYGVAFGGGTELEIL
modifications: pHrodo iFL Red dye conjugated to the antibody; positions not given
notes: also called 1A3-pHrodo; 1A3 pHrodo

- binding result [2]: no binding
- binding result [3]: binds
B2: GMF-1A3 rabbit monoclonal IgG antibody (antibody, V domains shown)
VH: B1 VH
VL: B1 VL
notes: also called anti-cleaved-AREG 1A3 antibody; unconjugated 1A3

- binding result [2]: no binding
B3: GMF-3E4 rabbit monoclonal IgG antibody (antibody, V domains shown)
VH: QSVKESEGRLVTPGTPLTLTCTVSGFSLSDYWMSWVRQAPGKGLEWIGIAGYSDNTYYASRAKGRFTISKTSTTVVLKITRPTTEDTATYFCVRDLYGVYSSGTTLWGPGTLVTVSS
VL: ELVMTQTPSPVSAAVGGTVTISCQSSQSVYNNNRLAWFQQKPGQPPKLLIYYASTLASGVSSRFKGSGSGTQFTLIISDVVCDDAATYYCQGYYSGGITGFGGGTEVVVK
